Columns and labels:
Conditions in all cases: both partners purified
[1] = target: T1, myosin 16 C-terminal tail (Myo16Tail), His6-tagged, with the IQ motif (Rattus norvegicus, UniProt Q9ERC1 1146-1912); assay: fluorescence polarisation; steady-state fluorescence anisotropy; Alexa568–Myo16Ank fixed (1.2 μM with Myo16Tail, 1 μM with Myo16Tail (−IQ)), tail construct titrated; λex 578 nm, λem 601 nm; quadratic binding equation (Equation 1)
T1 construct: Myosin 16 (Myo16b isoform, 1912 aa), Rattus norvegicus, UniProt Q9ERC1, residues 1146-1912: IQ motif, NHM, proline-rich region and C-terminal element; cloned into pFastBac; No removal of the His6 tag is described; also called His6–Myo16Tail; C-terminal tail extension of Myo16b; source: baculovirus/Sf9, purified under denaturing conditions (6 M GuHCl, 8 M urea, Ni-NTA), renatured by dialysis
T1 sequence (looked up): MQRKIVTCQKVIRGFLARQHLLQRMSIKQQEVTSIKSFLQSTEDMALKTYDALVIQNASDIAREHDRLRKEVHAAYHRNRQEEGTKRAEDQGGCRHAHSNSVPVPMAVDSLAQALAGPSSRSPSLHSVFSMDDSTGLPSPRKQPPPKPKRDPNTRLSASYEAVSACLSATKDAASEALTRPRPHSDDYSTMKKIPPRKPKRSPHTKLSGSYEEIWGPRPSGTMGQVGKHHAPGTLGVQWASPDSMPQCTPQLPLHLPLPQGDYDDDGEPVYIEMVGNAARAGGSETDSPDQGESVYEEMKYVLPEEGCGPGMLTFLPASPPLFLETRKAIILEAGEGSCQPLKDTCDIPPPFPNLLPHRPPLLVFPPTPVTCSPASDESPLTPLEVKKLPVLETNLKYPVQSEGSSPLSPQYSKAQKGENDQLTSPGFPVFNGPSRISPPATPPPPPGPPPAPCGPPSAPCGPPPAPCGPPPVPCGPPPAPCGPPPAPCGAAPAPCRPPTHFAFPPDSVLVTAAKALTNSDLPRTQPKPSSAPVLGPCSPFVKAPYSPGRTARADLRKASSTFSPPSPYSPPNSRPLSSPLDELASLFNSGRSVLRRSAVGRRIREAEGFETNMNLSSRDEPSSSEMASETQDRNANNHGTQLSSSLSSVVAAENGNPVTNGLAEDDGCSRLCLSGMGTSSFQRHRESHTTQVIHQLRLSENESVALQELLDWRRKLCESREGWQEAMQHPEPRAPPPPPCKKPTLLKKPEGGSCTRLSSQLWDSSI

[2] = target: T2, Myo16Tail without the IQ motif, Myo16Tail (−IQ), His6-tagged (Rattus norvegicus, UniProt Q9ERC1 1176-1912); assay: as above
T2 construct: Myosin 16 (Myo16b isoform), Rattus norvegicus, UniProt Q9ERC1, residues 1176-1912 (tail without the IQ motif); Cloned into the pFastBac vector as m1; No removal of the His6 tag is described; also called His6–Myo16Tail (−IQ); source: baculovirus/Sf9, purified by the denaturing procedure (Ni-NTA), renatured
T2 sequence (looked up): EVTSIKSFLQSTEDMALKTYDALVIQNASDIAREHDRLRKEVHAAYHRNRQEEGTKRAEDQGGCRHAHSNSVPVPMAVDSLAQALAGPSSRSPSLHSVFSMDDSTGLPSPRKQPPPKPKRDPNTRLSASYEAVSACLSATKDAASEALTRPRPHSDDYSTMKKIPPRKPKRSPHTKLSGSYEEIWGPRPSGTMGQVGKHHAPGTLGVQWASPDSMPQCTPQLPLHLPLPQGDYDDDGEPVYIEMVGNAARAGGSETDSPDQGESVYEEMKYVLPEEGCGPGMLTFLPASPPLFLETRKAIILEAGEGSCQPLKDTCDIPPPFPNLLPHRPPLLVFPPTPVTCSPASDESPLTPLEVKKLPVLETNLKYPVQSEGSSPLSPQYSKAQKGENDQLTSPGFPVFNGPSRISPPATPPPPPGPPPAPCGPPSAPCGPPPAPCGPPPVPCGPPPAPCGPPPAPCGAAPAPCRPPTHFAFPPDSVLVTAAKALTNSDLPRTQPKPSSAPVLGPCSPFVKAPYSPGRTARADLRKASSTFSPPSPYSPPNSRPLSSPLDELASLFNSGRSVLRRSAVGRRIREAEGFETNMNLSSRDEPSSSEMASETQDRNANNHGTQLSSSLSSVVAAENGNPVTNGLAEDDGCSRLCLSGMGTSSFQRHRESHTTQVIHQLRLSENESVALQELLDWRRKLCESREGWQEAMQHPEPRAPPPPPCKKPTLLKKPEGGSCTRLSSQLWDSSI

[3] = target: T3, Alexa568-labelled synthesized rat myosin 16 IQ motif peptide (Alexa568–Myo16IQ) (Rattus norvegicus, UniProt Q9ERC1 1146-1175, Alexa Fluor C5 568 maleimide label, position not stated); assay: fluorescence polarisation; steady-state fluorescence anisotropy; Alexa568–Myo16IQ fixed (1 μM), Myo16Ank titrated; λex 578 nm, λem 601 nm; quadratic binding equation (Equation 1)
T3 construct: Myosin 16 IQ motif, Rattus norvegicus, residues 1146-1175 (30 amino acids, MW 3.6385 kDa by mass spectrometry); source: synthetic peptide (GenScript)
T3 peptide (looked up): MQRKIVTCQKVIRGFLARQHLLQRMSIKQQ

Binder	Kd [1] [µM]	Kd [2] [µM]	Kd [3] [µM]
Alexa568-labelled N-terminal ankyrin domain of myosin 16 (Alexa568–Myo16Ank) (domain or fragment, Alexa Fluor C5 568 maleimide label, position not stated) MEIDQCLLESLPLGQRQRLVRRMRCEQIKAYYEREKVFQKQEGLLKRIKPGKSQKVRFGLADMIQDAIIHHHDKEVLQLLKEGADPHTLVSSGGSLLHLCARYDNVFIAEVLIDRGVNVNHQDEDFWAPMHIACACDNPDIVLLLILAGANVLLQDVNGNIPLDYAVEGTESSAILLAYLDENGVDLNSLRQIKLQRPLSMLTDVRHFLSSGGDVNEKNDDGVTLLHMACASGYKEVVLLLLEHGGDLNGMDDGYWTPLHLAAKYGQTTLVKLLLAHQANPHLVNCNGEKPSDIAASESIEEMLLKAEIAWEERMKESPSVPSLAQEELYEEILHDLPELSSKLSPLVLPIAKQDSLLEKDIMFKDTTKGLCNQESQDGPPETSMVSSSSKPEQVQLTPP	2.5	5.6	–
N-terminal ankyrin domain of myosin 16 (Myo16Ank), unlabelled (domain or fragment) MEIDQCLLESLPLGQRQRLVRRMRCEQIKAYYEREKVFQKQEGLLKRIKPGKSQKVRFGLADMIQDAIIHHHDKEVLQLLKEGADPHTLVSSGGSLLHLCARYDNVFIAEVLIDRGVNVNHQDEDFWAPMHIACACDNPDIVLLLILAGANVLLQDVNGNIPLDYAVEGTESSAILLAYLDENGVDLNSLRQIKLQRPLSMLTDVRHFLSSGGDVNEKNDDGVTLLHMACASGYKEVVLLLLEHGGDLNGMDDGYWTPLHLAAKYGQTTLVKLLLAHQANPHLVNCNGEKPSDIAASESIEEMLLKAEIAWEERMKESPSVPSLAQEELYEEILHDLPELSSKLSPLVLPIAKQDSLLEKDIMFKDTTKGLCNQESQDGPPETSMVSSSSKPEQVQLTPP	–	–	16
